The supplement of paper PMC9112550, “Optimization of the antimicrobial peptide Bac7 by deep mutational scanning” (BMC Biology, 2022)

System: Escherichia coli TOP10
Test: shrunken log2 fold change of peptide-encoding DNA abundance (4.5 h post-induction vs induction); higher = less antimicrobial activity (less host growth inhibition)
Conditions: time post-induction: 4.5 h; library: site-saturation at positions 5, 18, 19, 20
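Note: peptides expressed intracellularly from a pBAD plasmid library in pooled LB shake-flask culture, induced with 0.3% L-arabinose, DNA abundance read by NGS, three biological replicates, DESeq2 with apeglm shrinkage.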

| Sequence | shrunken log2 fold change |
| --- | --- |
| RRIRLRPPRLPRPRPRPGNHPRP | -0.267 |
| RRIRFRPPRLPRPRPRPPMEPRP | -0.0751 |
| RRIRERPPRLPRPRPRPWEVPRP | -0.17 |
| RRIRFRPPRLPRPRPRPWNRPRP | -0.216 |
| RRIRARPPRLPRPRPRPMDKPRP | 0.0591 |
| RRIRQRPPRLPRPRPRPTYYPRP | -0.524 |
| RRIRRRPPRLPRPRPRPWMEPRP | -0.137 |
| RRIRSRPPRLPRPRPRPYRIPRP | 0.123 |
| RRIRIRPPRLPRPRPRPLCLPRP | -0.736 |
| RRIRFRPPRLPRPRPRPLMVPRP | -0.38 |
| RRIRMRPPRLPRPRPRPAHNPRP | 0.421 |
| RRIRLRPPRLPRPRPRPWATPRP | -0.0496 |
| RRIRRRPPRLPRPRPRPVTKPRP | 0.28 |
| RRIRVRPPRLPRPRPRPCEIPRP | -0.0392 |
| RRIRERPPRLPRPRPRPHALPRP | -0.236 |
| RRIRYRPPRLPRPRPRPKQAPRP | 0.0341 |
| RRIRERPPRLPRPRPRPTPVPRP | 0.059 |
| RRIRTRPPRLPRPRPRPNEHPRP | -0.198 |
| RRIRMRPPRLPRPRPRPKPLPRP | 0.603 |
| RRIRDRPPRLPRPRPRPCYEPRP | 0.00345 |
| RRIRSRPPRLPRPRPRPHRVPRP | 0.0316 |
| RRIRFRPPRLPRPRPRPACNPRP | -0.26 |
| RRIRMRPPRLPRPRPRPMQQPRP | 1.38 |
| RRIRGRPPRLPRPRPRPCTNPRP | 0.247 |
| RRIRQRPPRLPRPRPRPIHGPRP | -0.0264 |

| Sequence | shrunken log2 fold change |
| --- | --- |
| RRIRGRPPRLPRPRPRPRDMPRP | 0.339 |
| RRIRGRPPRLPRPRPRPPMHPRP | 0.95 |
| RRIRHRPPRLPRPRPRPGITPRP | -0.453 |
| RRIRIRPPRLPRPRPRPCDWPRP | 0.00175 |
| RRIRRRPPRLPRPRPRPTIYPRP | -0.1 |
| RRIRMRPPRLPRPRPRPQTKPRP | 0.205 |
| RRIRGRPPRLPRPRPRPKGVPRP | 0.123 |
| RRIRGRPPRLPRPRPRPHRKPRP | 0.101 |
| RRIRLRPPRLPRPRPRPNLNPRP | -0.716 |
| RRIRCRPPRLPRPRPRPCRLPRP | -0.3 |
| RRIRCRPPRLPRPRPRPDVHPRP | -0.241 |
| RRIRARPPRLPRPRPRPYFDPRP | -0.123 |
| RRIRDRPPRLPRPRPRPARLPRP | 0.382 |
| RRIRDRPPRLPRPRPRPTSCPRP | 0.037 |
| RRIRLRPPRLPRPRPRPRDAPRP | 0.469 |
| RRIRRRPPRLPRPRPRPYCLPRP | -0.574 |
| RRIRQRPPRLPRPRPRPINTPRP | -0.129 |
| RRIRWRPPRLPRPRPRPRPFPRP | 0.56 |
| RRIRARPPRLPRPRPRPPLKPRP | 0.33 |
| RRIRDRPPRLPRPRPRPKRHPRP | 0.214 |
| RRIRMRPPRLPRPRPRPMRKPRP | 0.361 |
| RRIRWRPPRLPRPRPRPELDPRP | 1.82 |
| RRIRDRPPRLPRPRPRPCNEPRP | -0.0633 |
| RRIRCRPPRLPRPRPRPERPPRP | 0.777 |
| RRIRHRPPRLPRPRPRPHNAPRP | -0.809 |

| Sequence | shrunken log2 fold change |
| --- | --- |
| RRIRCRPPRLPRPRPRPRPWPRP | 0.432 |
| RRIRLRPPRLPRPRPRPDHHPRP | -0.769 |
| RRIRWRPPRLPRPRPRPCPDPRP | 0.111 |
| RRIRLRPPRLPRPRPRPTAEPRP | 0.16 |
| RRIRQRPPRLPRPRPRPAMDPRP | -0.00901 |
| RRIRHRPPRLPRPRPRPQAFPRP | -0.0247 |
| RRIRVRPPRLPRPRPRPSWNPRP | -0.371 |
| RRIRLRPPRLPRPRPRPRMMPRP | 0.189 |
| RRIRSRPPRLPRPRPRPKHKPRP | -0.0831 |
| RRIRQRPPRLPRPRPRPSYSPRP | -0.298 |
| RRIRKRPPRLPRPRPRPTMDPRP | 0.0288 |
| RRIRIRPPRLPRPRPRPEAMPRP | 0.124 |
| RRIRCRPPRLPRPRPRPHFCPRP | -0.649 |
| RRIRERPPRLPRPRPRPPMDPRP | -0.214 |
| RRIRNRPPRLPRPRPRPGPYPRP | -0.00784 |
| RRIRRRPPRLPRPRPRPRWRPRP | 0.832 |
| RRIRQRPPRLPRPRPRPLAPPRP | 0.38 |
| RRIRDRPPRLPRPRPRPNDWPRP | -0.0967 |
| RRIRNRPPRLPRPRPRPCRSPRP | -0.0607 |
| RRIRVRPPRLPRPRPRPNLIPRP | -0.149 |
| RRIRVRPPRLPRPRPRPRSPPRP | 0.342 |
| RRIRPRPPRLPRPRPRPDAYPRP | -0.334 |
| RRIRNRPPRLPRPRPRPWLRPRP | -0.0603 |
| RRIRFRPPRLPRPRPRPIGQPRP | 0.00854 |
| RRIRVRPPRLPRPRPRPPIPPRP | 0.242 |

| Sequence | shrunken log2 fold change |
| --- | --- |
| RRIRKRPPRLPRPRPRPCAAPRP | 0.421 |
| RRIRNRPPRLPRPRPRPDQWPRP | 0.0039 |
| RRIRRRPPRLPRPRPRPHAMPRP | 0.191 |
| RRIRWRPPRLPRPRPRPHMSPRP | 0.033 |
| RRIRNRPPRLPRPRPRPWWLPRP | -0.106 |
| RRIRCRPPRLPRPRPRPSENPRP | -0.154 |
| RRIRLRPPRLPRPRPRPAHNPRP | 0.255 |
| RRIRWRPPRLPRPRPRPMEIPRP | -0.0287 |
| RRIRPRPPRLPRPRPRPTEKPRP | 0.0615 |
| RRIRDRPPRLPRPRPRPYAMPRP | 0.168 |
| RRIRKRPPRLPRPRPRPVFIPRP | -0.0138 |
| RRIRDRPPRLPRPRPRPVFTPRP | 0.076 |
| RRIRPRPPRLPRPRPRPPCRPRP | 0.339 |
| RRIRWRPPRLPRPRPRPFTMPRP | -0.36 |
| RRIRRRPPRLPRPRPRPSPRPRP | 1.03 |
| RRIRSRPPRLPRPRPRPCIGPRP | -0.18 |
| RRIRGRPPRLPRPRPRPCWIPRP | -0.0658 |
| RRIRGRPPRLPRPRPRPLDEPRP | 1.24 |
| RRIRMRPPRLPRPRPRPRDCPRP | 0.288 |
| RRIRQRPPRLPRPRPRPKSCPRP | 0.000945 |
| RRIRWRPPRLPRPRPRPQGYPRP | -0.0909 |
| RRIRYRPPRLPRPRPRPPKSPRP | -0.0324 |
| RRIRDRPPRLPRPRPRPDCPPRP | -0.0117 |
| RRIRERPPRLPRPRPRPLLYPRP | -0.309 |
| RRIRARPPRLPRPRPRPSFDPRP | 0.103 |

| Sequence | shrunken log2 fold change |
| --- | --- |
| RRIRFRPPRLPRPRPRPAQWPRP | 0.296 |
| RRIRQRPPRLPRPRPRPFMPPRP | -0.216 |
| RRIRSRPPRLPRPRPRPGFQPRP | -0.114 |
| RRIRKRPPRLPRPRPRPWPIPRP | 0.891 |
| RRIRDRPPRLPRPRPRPHWSPRP | -0.132 |
| RRIRNRPPRLPRPRPRPCFDPRP | -0.0482 |
| RRIRRRPPRLPRPRPRPWGKPRP | -0.0259 |
| RRIRKRPPRLPRPRPRPIIGPRP | 0.00654 |
| RRIRWRPPRLPRPRPRPIAGPRP | 0.0596 |
| RRIRWRPPRLPRPRPRPKTWPRP | 0.325 |
| RRIRHRPPRLPRPRPRPWIEPRP | 0.0254 |
| RRIRYRPPRLPRPRPRPVYMPRP | -1.34 |
| RRIRMRPPRLPRPRPRPMGTPRP | 0.301 |
| RRIRVRPPRLPRPRPRPKHSPRP | -0.189 |
| RRIRTRPPRLPRPRPRPIQDPRP | -0.867 |
| RRIRDRPPRLPRPRPRPKAHPRP | 0.0408 |
| RRIRQRPPRLPRPRPRPKSEPRP | -0.0211 |
| RRIRCRPPRLPRPRPRPAWVPRP | 0.316 |
| RRIRMRPPRLPRPRPRPEGYPRP | 2.64 |
| RRIRERPPRLPRPRPRPRVVPRP | 0.069 |
| RRIRTRPPRLPRPRPRPQVDPRP | -0.0209 |
| RRIRHRPPRLPRPRPRPQMCPRP | -0.0203 |
| RRIRTRPPRLPRPRPRPFPWPRP | -0.125 |
| RRIRLRPPRLPRPRPRPWGIPRP | -0.198 |
| RRIRPRPPRLPRPRPRPPKEPRP | 0.506 |

| Sequence | shrunken log2 fold change |
| --- | --- |
| RRIRNRPPRLPRPRPRPHTCPRP | 0.0167 |
| RRIRNRPPRLPRPRPRPHNVPRP | -0.0343 |
| RRIRGRPPRLPRPRPRPCMMPRP | 0.145 |
| RRIRNRPPRLPRPRPRPAAWPRP | 0.0193 |
| RRIRHRPPRLPRPRPRPIEDPRP | 0.0058 |
| RRIRHRPPRLPRPRPRPKDDPRP | -0.152 |
| RRIRARPPRLPRPRPRPNMWPRP | 0.188 |
| RRIRDRPPRLPRPRPRPLLFPRP | 0.445 |
| RRIRVRPPRLPRPRPRPALQPRP | 0.0743 |
| RRIRERPPRLPRPRPRPLIYPRP | -0.682 |
| RRIRQRPPRLPRPRPRPDVCPRP | 0.13 |
| RRIRFRPPRLPRPRPRPETEPRP | -0.0257 |
| RRIRPRPPRLPRPRPRPQPQPRP | 0.26 |
| RRIRFRPPRLPRPRPRPPYYPRP | -0.464 |
| RRIRYRPPRLPRPRPRPWTFPRP | -0.225 |
| RRIRSRPPRLPRPRPRPFSGPRP | -0.134 |
| RRIRKRPPRLPRPRPRPMNEPRP | 0.22 |
| RRIRRRPPRLPRPRPRPGRPPRP | 0.259 |
| RRIRCRPPRLPRPRPRPETYPRP | -0.34 |
| RRIRKRPPRLPRPRPRPYSQPRP | 0.0349 |
| RRIRCRPPRLPRPRPRPCGWPRP | 0.456 |
| RRIRKRPPRLPRPRPRPANHPRP | -0.235 |
| RRIRARPPRLPRPRPRPYYMPRP | -0.687 |
| RRIRVRPPRLPRPRPRPKEPPRP | 0.0639 |
| RRIRSRPPRLPRPRPRPLTEPRP | 0.21 |
